Data taken from article PMC10284691, “A tripartite rheostat controls self-regulated host plant resistance to insects” (Nature, 2023).

Tests used:
[1] = target: T1, BISP (purified from insect cells) (Nilaparvata lugens (brown planthopper)); test: BLI; Octet RED96; biotinylated LRR or N14–LRR (20 μg/ml) on streptavidin biosensors, BISP, BISP(26–124) or BISP(125–241) in solution at different concentrations; PBS pH 7.4 with 0.05% Tween 20 and 0.5% BSA; 25 °C; association 180 s, dissociation 180 s; global fit; conditions: both partners purified
T1 construct: probably this one too; source: SF9 insect cells (baculovirus), purified (Ni-NTA, dialysed in PBS)

[2] = target: T2, BISP(26–124) (purified from insect cells) (Nilaparvata lugens (brown planthopper)); test: as above; conditions: both partners purified
T2 construct: source: SF9 insect cells (baculovirus), purified (Ni-NTA, dialysed in PBS)

B1: BPH14–LRR (purified from insect cells) (domain or fragment)
chain: SGDRPEAIRTPSPEKGYPGIQTLICSRFKYLQNVSKYRSLRVLTTMWEGSFLIPKYHHHLRYLDLSESEIKALPEDISILYHLQTLNLSRCLSLRRLPKGMKYMTALRHLYTHGCWSLGSMPPDLGHLTCLQTLTCFVAGTCSGCSDLGELRQLDLGGRLELRKLENVTKADAKAANLGKKEKLTKLTLIWTDQEYKEAQSNNHKEVLEGLTPHEGLKVLSIYHCGSSTCPTWMNKLRDMVGLELNGCKNLEKLPPLWQLPALQVLCLEGLGSLNCLFNCDTHTPFTFCRLKELTLSDMTNFETWWDTNEVQGEELMFPEVEKLSIESCHRLTALPKASNAISESSGEVSTVCRSAFPALKEMKLYDLRIFQKWEAVDGTPREEATFPQLDKLEIRQCPELTTLPEAPKLSDLEISKGNQQISLQAASRHITSLSSLVLHLSTDDTETASVAKQQDSSDLVIEDEKWSHKSPLELMVLSRCNLLFSHPSALALWTCFAQLLDLKIRYVDALVSWPEEVFQGLVSLRKLEISVCENLTGHTQARGQSTPAPSELLPRLESLEITCCDSIVEVPNLPASLKLLEIRGCPGLESIVFNQQQDRTMLVSAESFAEQDKSSLISGSTSETNDHVLPRLESLVINWCDRLEVLHLPPSIKKLGIYSCEKLRSLSVKLDAVRELSIRHCGSLKSLESCLGELASLQQLKLFDCKSLESLPKGPQAYSSLTSLEIRGCSGIKVLPPSLQQRLDDIEDKELDACYEEAEAEPKSRHRQSAISRLMCLK
modifications: biotin (NHS-biotin) in the BLI assays; RED-NHS 2nd Generation dye in the MST assays
[1]
  Kd: 32.1 nM
[2]
  Kd: 127 nM
